B1: Septin-12 (Homo sapiens), Q8IYM1 (parent)
chain: MDPLRRSPSPCLSSQPSSPSTPPCEMLGPVGIEAVLDQLKIKAMKMGFEFNIMVVGQSGLGKSTMVNTLFKSKVWKSNPPGLGVPTPQTLQLHSLTHVIEEKGVKLKLTVTDTPGFGDQINNDNCWDPILGYINEQYEQYLQEEILITRQRHIPDTRVHCCVYFVPPTGHCLRPLDIEFLQRLCRTVNVVPVIARADSLTMEEREAFRRRIQQNLRTHCIDVYPQMCFDEDINDKILNSKLRDRIPFAVVGADQEHLVNGRCVLGRKTKWGIIEVENMAHCEFPLLRDLLIRSHLQDLKDITHNIHYENYRVIRLNESHLLPRGPGWVNLAPASPGQLTTPRTFKVCRGAHDDSDDEF
partner: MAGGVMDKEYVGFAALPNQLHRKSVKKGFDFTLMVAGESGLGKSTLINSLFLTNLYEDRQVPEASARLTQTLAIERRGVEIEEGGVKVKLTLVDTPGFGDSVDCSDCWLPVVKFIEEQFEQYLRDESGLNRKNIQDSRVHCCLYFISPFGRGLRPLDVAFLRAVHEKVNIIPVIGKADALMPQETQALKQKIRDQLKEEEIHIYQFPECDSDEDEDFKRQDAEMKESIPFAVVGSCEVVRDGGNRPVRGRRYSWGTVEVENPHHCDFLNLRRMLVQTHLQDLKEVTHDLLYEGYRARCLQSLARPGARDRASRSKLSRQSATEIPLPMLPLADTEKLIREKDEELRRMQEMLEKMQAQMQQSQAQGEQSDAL

Variants of: B1
Conditions: with sept1_human SEPTIN1, Q8WYJ6

| Variant | effect of a mutation on the interaction |
| --- | --- |
| MDPLRRSPSPCLSSQPSSPSTPPCEMLGPVGIEAVLDQLKIKAMKMGFEFNIMVVGQSGLGKSTMVNTLFKSKVWKSNPPGLGVPTPQTLQLHSLTHVIEEKGVKLKLTVTDTPGFGDQINNDNCWDPILGYINEQYEQYLQEEILITRQRHIPDTRVHCCVYFVPPTGHCLRPLDIEFLQRLCRTVNVVPVIARADSLTMEEREAFRRRIQQNLRTHCIDIYPQMCFDEDINDKILNSKLRDRIPFAVVGADQEHLVNGRCVLGRKTKWGIIEVENMAHCEFPLLRDLLIRSHLQDLKDITHNIHYENYRVIRLNESHLLPRGPGWVNLAPASPGQLTTPRTFKVCRGAHDDSDDEF [V222I] | disrupting interaction strength |
| MDPLRRSPSPCLSSQPSSPSTPPCEMLGPVGIEAVLDQLKIKAMKMGFEFNIMVVGQSGLGKSTMVNTLFKSKVWKSNPPGLGVPTPQTLQLHSLTHVIEEKGVKLKLTVKDTPGFGDQINNDNCWDPILGYINEQYEQYLQEEILITRQRHIPDTRVHCCVYFVPPTGHCLRPLDIEFLQRLCRTVNVVPVIARADSLTMEEREAFRRRIQQNLRTHCIDVYPQMCFDEDINDKILNSKLRDRIPFAVVGADQEHLVNGRCVLGRKTKWGIIEVENMAHCEFPLLRDLLIRSHLQDLKDITHNIHYENYRVIRLNESHLLPRGPGWVNLAPASPGQLTTPRTFKVCRGAHDDSDDEF [T111K] | disrupting interaction strength |
| MDPLRRSPSPCLSSQPSSPSTPPCEMLGPVGIEAVLDQLKIKAMKMGFEFNIMVVGQSGLGKSTMVNTLFKSKVWKSNPPGLGVPTPQTLQLHSLTHVIEEKGVKLKLTVMDTPGFGDQINNDNCWDPILGYINEQYEQYLQEEILITRQRHIPDTRVHCCVYFVPPTGHCLRPLDIEFLQRLCRTVNVVPVIARADSLTMEEREAFRRRIQQNLRTHCIDVYPQMCFDEDINDKILNSKLRDRIPFAVVGADQEHLVNGRCVLGRKTKWGIIEVENMAHCEFPLLRDLLIRSHLQDLKDITHNIHYENYRVIRLNESHLLPRGPGWVNLAPASPGQLTTPRTFKVCRGAHDDSDDEF [T111M] | disrupting interaction strength |
| MDPLRRSPSPCLSSQPSSPSTPPCEMLGPVGIEAVLDQLKIKAMKMGFEFNIMVVGQSGLGKSTMVNTLFKSKVWKSNPPGLGVPTPQTLQLHSLTHVIEEKGVKLKLTVTDTPGFGDQINNDNCWDPILGYINEQYEQYLQEEILITRQRHIPDTRVHCCVYFVPPTGHCLRPLDIEFLQRLCRTVNVVPVIARADSLTMEEREAFRRRIQRNLRTHCIDVYPQMCFDEDINDKILNSKLRDRIPFAVVGADQEHLVNGRCVLGRKTKWGIIEVENMAHCEFPLLRDLLIRSHLQDLKDITHNIHYENYRVIRLNESHLLPRGPGWVNLAPASPGQLTTPRTFKVCRGAHDDSDDEF [Q213R] | disrupting interaction strength |
| MDPLRRSPSPCLSSQPSSPSTPPCEMLGPVGIEAVLDQLKIKAMKMGFEFNIMVVGQSGLGKSTMVNTLFKSKVWKSNPPGLGVPTPQTLQLHSLTHVIEEKGVKLKLTVTDTPGFGDQINNDNCWDPILGYINEQYEQYLQEEILITRQRHIPDTRVHCCMYFVPPTGHCLRPLDIEFLQRLCRTVNVVPVIARADSLTMEEREAFRRRIQQNLRTHCIDVYPQMCFDEDINDKILNSKLRDRIPFAVVGADQEHLVNGRCVLGRKTKWGIIEVENMAHCEFPLLRDLLIRSHLQDLKDITHNIHYENYRVIRLNESHLLPRGPGWVNLAPASPGQLTTPRTFKVCRGAHDDSDDEF [V162M] | disrupting interaction strength |
| MDPLRRSPSPCLSSQPSSPSTPPCEMLGPVGIEAVLDQLKIKAMKMGFEFNIMVVGQSGLGKSTMVNTLFKSKVWKSNPPGLGVPTPQTLQLHSLTHVIEEKGVKLKLTVTDTPGFGDQINNDNCWDPILGYINEQYEQYLQEEILITRQRHIPDTRVHCCVYFVPPTGHCLRPLDIEFLQRLCRTVNVVPVIARADSLTMEEREAFRRRIQQNLRTHCIDVYPQMCFDEDINDKILNSKLRDRIPFAVVGADQEHLVNGRCVLGRKTKWGIIEVENMAHCEFPLLRDLLIRSHLQDLKDITHNIHYENYCVIRLNESHLLPRGPGWVNLAPASPGQLTTPRTFKVCRGAHDDSDDEF [R311C] | disrupting interaction strength |
| MDPLRRSPSPCLSSQPSSPSTPPCEMLGPVGIEAVLDQLKIKAMKMGFEFNIMVVGQSGLGKSTMVNTLFKSKVWKSNPPGLGVPTPQTLQLHSLTHVIEEKGVKLKLTVTDTPGFGDQINNDNCWDPILGYINEQYEQYLQEEILITRQRHIPDTRVHCCVYFVPPTGHCLRPLDIEFLQRLSRTVNVVPVIARADSLTMEEREAFRRRIQQNLRTHCIDVYPQMCFDEDINDKILNSKLRDRIPFAVVGADQEHLVNGRCVLGRKTKWGIIEVENMAHCEFPLLRDLLIRSHLQDLKDITHNIHYENYRVIRLNESHLLPRGPGWVNLAPASPGQLTTPRTFKVCRGAHDDSDDEF [C184S] | with no effect |

Variants of: B1
Conditions: with sept1_human SEPTIN1, Q8WYJ6
Remark: another data set of the same source

| Variant | effect of a mutation on the interaction |
| --- | --- |
| MDPLRRSPSPCLSSQPSSPSTPPCEMLGPVGIEAVLDQLKIKAMKMGFEFNIMVVGQSGLGKSTMVNTLFKSKVWKSNPPGLGVPTPQTLQLHSLTHVIEEKGVKLKLTVTDTPGFGDQINNDNCWDPILGYINEQYEQYLQEEILITRQRHIPDTRVHCCVYFVPPTGHCLRPLDIEFLQRLCRTVNVVPVIARANSLTMEEREAFRRRIQQNLRTHCIDVYPQMCFDEDINDKILNSKLRDRIPFAVVGADQEHLVNGRCVLGRKTKWGIIEVENMAHCEFPLLRDLLIRSHLQDLKDITHNIHYENYRVIRLNESHLLPRGPGWVNLAPASPGQLTTPRTFKVCRGAHDDSDDEF [D197N] | disrupting interaction strength |
